Data published in paper PMC6356355.

Molecular target: Toll-like receptor 9 (rat (endogenous in AR4-2J))

blockade of H4 (5 mgL^-1)-induced calcium oscillations in AR4-2J cells by simultaneous perfusion of TLR9 antagonist ODN2088 (5 uM): 88%
Substance: Recombinant histone H4 (from UniProt P62805 1-103) (natural protein)
